Assay results from US20230190951A1, “CONJUGATES OF ANTIBODIES AN IMMUNE CELL ENGAGERS” (SYNAFFIX B.V., priority 2020, published 2023).

Assays:
[1] = single-arm trial, all patients treated; cited from earlier work
[2] = cited from earlier work
CD3 = target: T1, CD3 (Homo sapiens, UniProt P07766); assay: CD3 binding analysis by FACS on CD3-positive Jurkat E6.1 cells; conditions: for median fluorescence intensity: Jurkat E6.1 (CD3-positive), median of duplicate
T1 construct: Jurkat E6.1 cells, which express CD3 on the cell surface; endogenous in cells; host or cells: Jurkat E6.1
T1 sequence (P07766 23-207): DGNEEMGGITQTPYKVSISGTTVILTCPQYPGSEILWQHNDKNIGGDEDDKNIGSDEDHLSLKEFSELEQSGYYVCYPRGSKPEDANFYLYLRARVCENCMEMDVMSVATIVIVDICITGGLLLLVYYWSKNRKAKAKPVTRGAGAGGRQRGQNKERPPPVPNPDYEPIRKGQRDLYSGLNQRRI
T1 sequence (P04234 22-171 partner): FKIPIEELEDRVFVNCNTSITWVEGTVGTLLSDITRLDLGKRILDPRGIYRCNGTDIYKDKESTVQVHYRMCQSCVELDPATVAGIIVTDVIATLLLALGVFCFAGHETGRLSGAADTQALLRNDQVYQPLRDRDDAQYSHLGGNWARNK
T1 sequence (P09693 23-182 partner): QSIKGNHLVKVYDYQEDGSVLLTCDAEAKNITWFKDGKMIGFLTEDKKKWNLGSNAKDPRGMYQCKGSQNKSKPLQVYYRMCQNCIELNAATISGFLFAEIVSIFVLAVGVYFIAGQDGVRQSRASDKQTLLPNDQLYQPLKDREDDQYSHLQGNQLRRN
T1 sequence (P20963 22-164 partner): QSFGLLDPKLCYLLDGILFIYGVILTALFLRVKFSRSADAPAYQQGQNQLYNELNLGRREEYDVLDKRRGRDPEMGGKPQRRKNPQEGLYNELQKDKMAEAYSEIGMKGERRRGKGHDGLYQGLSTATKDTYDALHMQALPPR
Procedure: (§1) Both cell lines were cultured in RPMI 1640 supplemented with 1% pen/strep and 10% fetal bovine serum at a concentration of 2 x 10^5 to 1 x 10^6 cells/ml. Cells were washed in fresh medium before the experiment and 100,000 cells per well were seeded in a 96-wells plate (duplicate wells). The dilution series of 6 antibodies were made in phosphate-buffered saline (PBS). The antibodies were diluted 10 times in the cell suspension and incubated at 4° C. in the dark for 30 minutes. After incubation, the cells were washed twice in cold PBS / 0.5% BSA, and incubated with anti-HIS-PE (only for 200) or anti-IgG1-PE (for all other compounds) at 4° C., in the dark for 30 minutes. After the second incubation step, the cells were washed twice. 7AAD was added as a live-dead staining. Detection of the fluorescence in the Yellow-B channel (anti-IgG1-PE and anti-HIS-PE) and the Red-B channel (7AAD) was done with the Guava 5HT flow cytometer. Median fluorescence intensity in the Yellow-B channel (anti-IgG1-PE and anti-HIS-PE) in life cells was determined with Kaluza software.

MOLT-4 cells = assay: CD3 binding analysis by FACS on CD3 negative MOLT-4 cells; conditions: MOLT-4 (CD3 negative)
Procedure: as §1

FcRn receptor = FcRn receptor (Homo sapiens, UniProt P55899); assay: FcRn binding analysis by Biacore (steady state); conditions: pH 6.0, PBS with 0.05% tween-20
Procedure: Binding to the FcRn receptor was determined at pH 7.4 and pH 6.0 using a Biacore T200 (serial no. 1909913) using single-cycle kinetics and running Biacore T200 Evaluation Software V 2.0.1. A CM5 chip was coupled with FcRn in sodium acetate pH 5.5 using standard amine chemistry. Serial dilution of bispecifics and controls were measured in PBS pH 7.4 with 0.05% tween-20 (9 points; 2-fold dilution series; 8000 nM Top conc.) and in PBS pH 6.0 with 0.05% tween-20 (3 points; 2-fold dilution series; 4000 nM Top conc.). A flow rate of 30 µl/min was used and an association time of 40 seconds and dissociation time of 75 seconds. Steady state analysis was used to analyze samples.

median fluorescence intensity (CD3; 0.32 nM)	median fluorescence intensity (CD3; 1 nM)	median fluorescence intensity (CD3; 3.16 nM)	median fluorescence intensity (CD3; 10 nM)	median fluorescence intensity (CD3; 31.6 nM)	median fluorescence intensity (CD3; 100 nM)	median fluorescence intensity (CD3; 316 nM)	median fluorescence intensity (CD3; 1000 nM)	binding to the CD3 positive Jurkat E6.1 cell line (CD3; Jurkat E6.1, result in words)	RMAX (RU) (FcRn receptor)	Substance	complete remission rate [1] [%]	minimal residual disease (MRD) response [1] [%]	serum half-life [2] [h]	median fluorescence intensity (MOLT-4 cells; 1 nM)	median fluorescence intensity (MOLT-4 cells; 10 nM)	median fluorescence intensity (MOLT-4 cells; 100 nM)	median fluorescence intensity (MOLT-4 cells; 1000 nM)
										blinatumomab	32	31	2.11				
58.28	56.55	55.37	60.83	58.71	55.49	54.99	66.36	not	96.4	rituximab				78.96	75.92	68.42	67.39
